The text below walks through data of FireProtDB (doi:10.1074/jbc.271.12.6832).

Where “and” joins values, the source holds several entries; their conditions need not be identical. Identical values can stand only once.

For this data set the following is noted: Streptococcus pneumoniae serotype 4 (strain ATCC BAA-334 / TIGR4); pH 6.9; Thermal; DSC; phosphate 20 mM; transition: 4; reversible: no; whole UniProt chain shown.

B1: Autolysin wild type, P06653 (protein)
chain: MEINVSKLRTDLPQVGVQPYRQVHAHSTGNPHSTVQNEADYHWRKDPELGFFSHIVGNGCIMQVGPVDNGAWDVGGGWNAETYAAVELIESHSTKEEFMTDYRLYIELLRNLADEAGLPKTLDTGSLAGIKTHEYCTNNQPNNHSDHVDPYPYLAKWGISREQFKHDIENGLTIETGWQKNDTGYWYVHSDGSYPKDKFEKINGTWYYFDSSGYMLADRWRKHTDGNWYWFDNSGEMATGWKKIADKWYYFNEEGAMKTGWVKYKDTWYYLDAKEGAMVSNAFIQSADGTGWYYLKPDGTLADKPEFTVEPDGLITVK
On to B1, for which the “unfolding enthalpy (van 't Hoff)” value was 50 kcal/mol and 71 kcal/mol and 95 kcal/mol.
